Measurements: IntAct's records for PubMed 22057290

B1: Ubiquitin carboxyl-terminal hydrolase CYLD (Homo sapiens), Q9NQC7 (parent)
chain: MSSGLWSQEKVTSPYWEERIFYLLLQECSVTDKQTQKLLKVPKGSIGQYIQDRSVGHSRIPSAKGKKNQIGLKILEQPHAVLFVDEKDVVEINEKFTELLLAITNCEERFSLFKNRNRLSKGLQIDVGCPVKVQLRSGEEKFPGVVRFRGPLLAERTVSGIFFGVELLEEGRGQGFTDGVYQGKQLFQCDEDCGVFVALDKLELIEDDDTALESDYAGPGDTMQVELPPLEINSRVSLKVGETIESGTVIFCDVLPGKESLGYFVGVDMDNPIGNWDGRFDGVQLCSFACVESTILLHINDIIPALSESVTQERRPPKLAFMSRGVGDKGSSSHNKPKATGSTSDPGNRNRSELFYTLNGSSVDSQPQSKSKNTWYIDEVAEDPAKSLTEISTDFDRSSPPLQPPPVNSLTTENRFHSLPFSLTKMPNTNGSIGHSPLSLSAQSVMEELNTAPVQESPPLAMPPGNSHGLEVGSLAEVKENPPFYGVIRWIGQPPGLNEVLAGLELEDECAGCTDGTFRGTRYFTCALKKALFVKLKSCRPDSRFASLQPVSNQIERCNSLAFGGYLSEVVEENTPPKMEKEGLEIMIGKKKGIQGHYNSCYLDSTLFCLFAFSSVLDTVLLRPKEKNDVEYYSETQELLRTEIVNPLRIYGYVCATKIMKLRKILEKVEAASGFTSEEKDPEEFLNILFHHILRVEPLLKIRSAGQKVQDCYFYQIFMEKNEKVGVPTIQQLLEWSFINSNLKFAEAPSCLIIQMPRFGKDFKLFKKIFPSLELNITDLLEDTPRQCRICGGLAMYECRECYDDPDISAGKIKQFCKTCNTQVHLHPKRLNHKYNPVSLPKDLPDWDWRHGCIPCQNMELFAVLCIETSHYVAFVKYGKDDSAWLFFDSMADRDGGQNGFNIPQVTPCPEVGEYLKMSLEDLHSLDSRRIQGCARRLLCDAYMCMYQSPTMSLYK

Variants of: B1
Settings: with itch_human ITCH

| Variant | effect of a mutation on the interaction |
| --- | --- |
| Y485A | disrupting interaction |
